Experimental data taken from article PMC3862839, “From Knock-Out Phenotype to Three-Dimensional Structure of a Promising Antibiotic Target from Streptococcus pneumoniae” (PLoS ONE, 2013).

How the values were obtained:
[1] = biological target: Ec-DHDPS (dimer) (Escherichia coli) (UniProt P0A6L2); details: cited from earlier work
[2] = substrate: CC(=O)C(=O)O; assay: purified protein; details: co-substrate (S)-ASA 0-0.48 mM, 250 mM HEPES pH 8.0, 30 °C, 0.2 mM NADPH, 20 nM enzyme, global ping-pong fit without substrate inhibition
Description: (§1) DHDPS-DHDPR coupled assay, NADPH oxidation on Sp-DHDPS (dihydrodipicolinate synthase)

[3] = substrate: N[C@@H](CC=O)C(=O)O; assay: purified protein; details: co-substrate pyruvate 0.5-16 mM, 250 mM HEPES pH 8.0, 30 °C, 0.2 mM NADPH, 20 nM enzyme, global ping-pong fit without substrate inhibition
Description: as §1

[4] = biological target: the molecule itself; assay: AUC; sedimentation velocity, 40,000 rpm, 20°C, 20 mM Tris-HCl pH 8.0, 150 mM NaCl; Sp-DHDPS at 4.5 µM and at 740 nM; c(s) and c(M) distributions (SEDFIT)
[5] = biological target: the molecule itself; assay: AUC; sedimentation equilibrium, 10,000 and 18,000 rpm, 20°C, 20 mM Tris-HCl pH 8.0, 150 mM NaCl; 296, 355 and 740 nM Sp-DHDPS; global fit to a dimer-tetramer model (SEDPHAT); tetramer to dimers

Sequence of Ec-DHDPS (dimer) (P0A6L2 whole entry): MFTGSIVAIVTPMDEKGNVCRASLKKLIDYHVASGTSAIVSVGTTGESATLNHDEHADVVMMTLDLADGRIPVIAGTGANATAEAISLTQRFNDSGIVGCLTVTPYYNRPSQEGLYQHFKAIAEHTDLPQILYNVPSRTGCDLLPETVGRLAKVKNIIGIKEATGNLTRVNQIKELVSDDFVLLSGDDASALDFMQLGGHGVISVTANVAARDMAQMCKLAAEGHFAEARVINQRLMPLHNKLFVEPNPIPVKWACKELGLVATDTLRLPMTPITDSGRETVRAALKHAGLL

Row | Molecule | Kd [1] | Km [2] | kcat [2] | Km [3] | kcat [3] | stoichiometry N [4] | Kd [5]
1 | Ec-DHDPS (dimer) (from UniProt P0A6L2) | 76 nM | – | – | – | – | – | –
2 | Streptococcus pneumoniae dihydrodipicolinate synthase (enzyme, UniProt Q97R25 1-311, looked up, Dihydrodipicolinate synthase (DHDPS, product of dapA) of Streptococcus pneumoniae; Homotetramer (dimer of 'tight' dimers) in solution and in the crystal; also called Sp-DHDPS; sp-DHDPS) MSYQDLKKCKIITAFITPFHEDGSINFDAIPALIEHLLAHHTDGILLAGTTAESPTLTHDEELELFAAVQKVVNGRVPLIAGVGTNDTRDSIEFVKEVAEFGGFAAGLAIVPYYNKPSQEGMYQHFKTIADASDLPIIIYNIPGRVVVELTPETMLRLADHPNIIGVKECTSLANMAYLIEHKPEEFLIYTGEDGDAFHAMNLGADGVISVASHTNGDEMHEMFTAIAESDMKKAAAIQRKFIPKVNALFSYPSPAPVKAILNYMGFEAGPTRLPLVPAPEEDAKRIIKVVVDGDYEATKATVTGVLRPDY | – | 2550 ± 50 µM | 22 s⁻¹ | 44 ± 3 µM | 22 s⁻¹ | 4 | 1.7 nM
